{"source": "patent US20260007767A1", "about": "(ACADEMIA SINICA, published 2026)", "target": "T1, endogenous FLT3 on the plasma membranes of THP-1 or NOMO-1 cells (UniProt P36888 27-993, limits assumed)", "T1 construct": "whole, on cells", "T1 sequence (looked up)": "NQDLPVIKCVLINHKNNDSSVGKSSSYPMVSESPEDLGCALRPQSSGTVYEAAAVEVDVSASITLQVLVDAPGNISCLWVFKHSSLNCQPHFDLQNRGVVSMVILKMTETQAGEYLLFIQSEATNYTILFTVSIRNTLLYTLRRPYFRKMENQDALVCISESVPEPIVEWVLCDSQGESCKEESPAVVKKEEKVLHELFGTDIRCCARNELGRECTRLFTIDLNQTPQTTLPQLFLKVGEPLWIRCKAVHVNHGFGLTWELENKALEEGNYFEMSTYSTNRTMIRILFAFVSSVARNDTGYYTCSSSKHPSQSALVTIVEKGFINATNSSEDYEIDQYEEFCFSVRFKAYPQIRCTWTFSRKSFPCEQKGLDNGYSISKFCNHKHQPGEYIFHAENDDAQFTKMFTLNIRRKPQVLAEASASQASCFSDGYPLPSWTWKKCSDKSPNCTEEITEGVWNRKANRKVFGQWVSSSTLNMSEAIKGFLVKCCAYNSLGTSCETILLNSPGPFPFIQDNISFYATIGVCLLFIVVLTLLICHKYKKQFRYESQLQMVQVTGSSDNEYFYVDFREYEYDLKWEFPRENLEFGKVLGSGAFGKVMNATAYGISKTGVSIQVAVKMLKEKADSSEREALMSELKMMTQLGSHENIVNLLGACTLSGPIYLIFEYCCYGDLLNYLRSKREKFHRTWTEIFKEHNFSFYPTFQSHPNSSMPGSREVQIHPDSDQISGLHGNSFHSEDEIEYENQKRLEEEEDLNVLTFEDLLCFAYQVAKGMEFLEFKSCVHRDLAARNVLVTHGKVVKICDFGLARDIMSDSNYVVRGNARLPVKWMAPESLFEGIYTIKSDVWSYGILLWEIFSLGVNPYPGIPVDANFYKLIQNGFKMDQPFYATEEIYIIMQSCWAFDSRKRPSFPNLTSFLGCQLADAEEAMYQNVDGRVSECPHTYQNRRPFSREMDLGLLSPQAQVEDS", "assay": "interaction and colocalization in THP-1 or NOMO-1 cells (method not detailed)", "data": [{"binder": "SCUBE1 on the cell surface of leukemia cells (THP-1, NOMO-1 and other lines) (other, human, UniProt Q8IWY4 24-988, looked up, whole, on cells; Endogenous protein; in western blots it was in cell lysate; also called surface SCUBE1; membrane SCUBE1) GGSGLPGSVDVDECSEGTDDCHIDAICQNTPKSYKCLCKPGYKGEGKQCEDIDECENDYYNGGCVHECINIPGNYRCTCFDGFMLAHDGHNCLDVDECQDNNGGCQQICVNAMGSYECQCHSGFFLSDNQHTCIHRSNEGMNCMNKDHGCAHICRETPKGGVACDCRPGFDLAQNQKDCTLTCNYGNGGCQHSCEDTDTGPTCGCHQKYALHSDGRTCIETCAVNNGGCDRTCKDTATGVRCSCPVGFTLQPDGKTCKDINECLVNNGGCDHFCRNTVGSFECGCRKGYKLLTDERTCQDIDECSFERTCDHICINSPGSFQCLCHRGYILYGTTHCGDVDECSMSNGSCDQGCVNTKGSYECVCPPGRRLHWNGKDCVETGKCLSRAKTSPRAQLSCSKAGGVESCFLSCPAHTLFVPDSENSYVLSCGVPGPQGKALQKRNGTSSGLGPSCSDAPTTPIKQKARFKIRDAKCHLRPHSQARAKETARQPLLDHCHVTFVTLKCDSSKKRRRGRKSPSKEVSHITAEFEIETKMEEASDTCEADCLRKRAEQSLQAAIKTLRKSIGRQQFYVQVSGTEYEVAQRPAKALEGQGACGAGQVLQDSKCVACGPGTHFGGELGQCVSCMPGTYQDMEGQLSCTPCPSSDGLGLPGARNVSECGGQCSPGFFSADGFKPCQACPVGTYQPEPGRTGCFPCGGGLLTKHEGTTSFQDCEAKVHCSPGHHYNTTTHRCIRCPVGTYQPEFGQNHCITCPGNTSTDFDGSTNVTHCKNQHCGGELGDYTGYIESPNYPGDYPANAECVWHIAPPPKRRILIVVPEIFLPIEDECGDVLVMRKSASPTSITTYETCQTYERPIAFTSRSRKLWIQFKSNEGNSGKGFQVPYVTYDEDYQQLIEDIVRDGRLYASENHQEILKDKKLIKALFDVLAHPQNYFKYTAQESKEMFPRSFIKLLRSKVSRFLRPYK", "values": [{"measurement": "binding result", "result": "binds"}]}]}
